What was measured:
human EL-C2 tag = target: T1, human EL-C2 tag (human, UniProt Q9Y5X9 21-500); test: cell-based or functional assay
T1 sequence: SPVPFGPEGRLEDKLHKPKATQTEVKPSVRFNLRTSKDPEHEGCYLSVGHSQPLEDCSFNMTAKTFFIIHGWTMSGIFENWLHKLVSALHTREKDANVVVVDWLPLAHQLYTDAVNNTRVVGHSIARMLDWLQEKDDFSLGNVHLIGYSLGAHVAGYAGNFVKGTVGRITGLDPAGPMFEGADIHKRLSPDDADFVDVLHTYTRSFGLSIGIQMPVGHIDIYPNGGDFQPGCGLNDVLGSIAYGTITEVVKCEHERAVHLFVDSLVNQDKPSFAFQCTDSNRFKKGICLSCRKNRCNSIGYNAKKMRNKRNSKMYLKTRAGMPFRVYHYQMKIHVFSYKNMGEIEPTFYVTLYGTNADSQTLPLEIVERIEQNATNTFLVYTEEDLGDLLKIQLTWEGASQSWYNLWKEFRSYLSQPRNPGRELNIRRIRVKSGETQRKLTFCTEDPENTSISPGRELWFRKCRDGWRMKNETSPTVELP

[1] = target: T2, human EL-411-459 fragment (human); test: sandwich ELISA with human EL fragment lysate, as Example 10
T2 construct: Used as HEK293 lysate
T2 chain: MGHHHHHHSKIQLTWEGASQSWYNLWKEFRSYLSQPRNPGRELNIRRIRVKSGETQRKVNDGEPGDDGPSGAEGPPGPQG

B1: 12B10 antibody (antibody, IgG2a, V domains shown)
VH: QVTLKESGPGILKPSQTLSLTCSFSGFSLSTSGMGVGWIRQPSGKGLEWLAHIWWNDEKYYNPSLKSQLTISKDTSRNQVFLKITSVDTADTATYYCARSYDGSPFPSWGQGTLVTVSA
VL: DIQMTQSPSSLSASLGGKVTITCKASQDINKYIAWFQHKPGKGPRLLMAYPFTLQPGIPSRFSGNGSGRDYSFSISNLEPEDIATYYCLQYDNLLWTFGGGTRLEIK
IC50 of EL enzyme activity (NEFA release from HDL) (human EL-C2 tag): 47 nM

B2: 47B2 antibody (antibody, IgG2a, V domains shown)
VH: QVALKESGPGILQPSQTLSLTCSFSGFSLSTSGMGVGWIRQPSGKGLEWLAHIWWHGNKYYSTGLKSRLTISKDTSNNQVFLKIASVDTADTATYYCARISAGYPLDYWGQGTSVTVSS
VL: DIQMTQSPSSLSASLGGKVTITCKASQDINKYIVWYQHKPGKGPRLLIHYTSTLQPGFPSRFSGSGSGRDYSLSITNLEPEDIATYYCLQYDNLLWTFGGGTKLEIK
binding result [1]: binds

From patent publication US20150025225A1 (SHIONOGI, published 2015)
